In patent US20140050720A1, “ULTRALONG COMPLEMENTARITY DETERMINING REGIONS AND USES THEREOF” (THE SCRIPPS RESEARCH INSTITUTE, priority 2012, published 2014):

Tests used:
Type in all cases: cell-based
TF-1 cells = assay: Proliferation assay on TF-1 cells (AlamarBlue); settings: 72 h
Procedure: TF-1 cells were obtained from American Type Culture Collection (ATCC), VA, and cultured in RPMI-1640 medium supplemented with 10% fetal bovine serum (FBS), penicillin, streptomycin and 2 ng/mL granulocyte-macrophage colony-stimulating factor (GM-CSF). For proliferation assay, TF-1 cells were washed three times with RPMI-1640 medium and resuspended in RPMI-1640 medium with 10% FBS and penicillin and streptomycin at a density of 1.5×10^5 cells/ml. Cells were plated in 96-well plates and treated with varied concentrations of BLV1H12-hEPO fusion antibodies. After 72 h of incubation at 37° C. with 5% CO2, cells viabilities were measured using AlamarBlue (Invitrogen) assay following manufacture's instruction. FIG. 21 and Table 18 show the proliferative activity of Ab-hEPO fusion antibodies on TF1 cells.

GLP-1 receptor (GLP-1R) = biological target: T1, GLP-1 receptor (GLP-1R) (Homo sapiens, UniProt P43220); assay: GLP-1R activation, cAMP responsive luciferase reporter in HEK293 cells; settings: HEK293 cells expressing GLP-1R, 24 h
T1 construct: expressed in transfected cells; host or cells: HEK293 cells expressing surface GLP-1R and a cAMP responsive luciferase reporter
Procedure: HEK293 cells expressing surface GLP-1R and cAMP responsive luciferase reporter gene were seeded in 384 well plates at a density of 5000 cells per well. […] Subsequently, luciferase assay was performed using One-Glo luciferase reagent according manufacture's instruction (Promega).
HEK293 cells expressing surface GLP-1R and cAMP responsive luciferase reporter gene were seeded in 384 well plates at a density of 5000 cells per well. After 24 h incubation at 37° C. with 5% CO2, cells were treated with various concentrations of peptides and BLV1H12-GLP-1 clip fusion proteins and incubated for another 24 h. Subsequently, luciferase assay was performed using One-Glo luciferase reagent according manufacture's instruction (Promega).

Human T cells = assay: Inhibition of T cells activation (secreted TNF-α ELISA); settings: T cells activated by anti-CD3 and CD28 antibodies, 24 h
Procedure: Human PBMCs were isolated from fresh venous blood of healthy donors through ficoll gradient centrifugation, followed by resuspension in RPMI1640 medium with 10% FBS and plating in 96-well plates at a density of 1×10^6 cells/mL. Human T cells were purified from the isolated PBMCs using T cell enrichment kit. Purified PBMCs and T cells were pretreated for 1 h at 37° C. with 5% CO2 with various concentrations of purified BLV1H12-Moka1 fusion antibodies and then activated by anti-CD3 and CD28 antibodies. After 24 h treatment, supernatant was collected for measurement of the levels of secreted TNF-α using ELISA kit.
Human T cells were purified from the isolated PBMCs using T cell enrichment kit. Purified T cells were pretreated for 1 h at 37° C. with 5% CO2 with various concentrations of purified BLV1H12-VM24 fusion antibodies and then activated by anti-CD3 and CD28 antibodies. After 24 h treatment, supernatant was collected for measurement of the levels of secreted TNF-a using ELISA kit. FIGS. 18B-C and Table 15 show the BLV1H12-VM24 fusion antibodies inhibitory activities on T cells activation.

T1 sequence (P43220 24-463, species assumed): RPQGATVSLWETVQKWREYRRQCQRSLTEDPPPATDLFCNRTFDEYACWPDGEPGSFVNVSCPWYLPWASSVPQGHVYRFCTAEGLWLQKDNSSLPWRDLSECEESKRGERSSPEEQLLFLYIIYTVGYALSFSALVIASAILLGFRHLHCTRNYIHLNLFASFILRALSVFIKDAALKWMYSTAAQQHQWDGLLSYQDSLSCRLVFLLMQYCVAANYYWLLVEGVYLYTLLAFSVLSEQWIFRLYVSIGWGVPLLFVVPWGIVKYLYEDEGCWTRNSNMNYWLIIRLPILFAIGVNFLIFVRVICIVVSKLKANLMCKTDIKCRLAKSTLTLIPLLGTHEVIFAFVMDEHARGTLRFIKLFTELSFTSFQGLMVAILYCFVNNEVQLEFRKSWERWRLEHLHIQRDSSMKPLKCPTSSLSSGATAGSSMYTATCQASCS

Substance: Ab-hEPO: human EPO with GGGGS linkers grafted into BLV1H12 CDR3H; DNA SEQ ID NO: 10
- F.I. (AlamarBlue, cell viability) (TF-1 cells; 0.00236 nM): 4198.65
- F.I. (AlamarBlue, cell viability) (TF-1 cells; 0.01178 nM): 4757.196
- F.I. (AlamarBlue, cell viability) (TF-1 cells; 0.05888 nM): 5265.069
- F.I. (AlamarBlue, cell viability) (TF-1 cells; 0.2944 nM): 6430.723
- F.I. (AlamarBlue, cell viability) (TF-1 cells; 1.472 nM): 8963.889
- F.I. (AlamarBlue, cell viability) (TF-1 cells; 7.36 nM): 10330.18
- F.I. (AlamarBlue, cell viability) (TF-1 cells; 36.8 nM): 10776.73
- F.I. (AlamarBlue, cell viability) (TF-1 cells; 184 nM): 10330.44
- F.I. (AlamarBlue, cell viability) (TF-1 cells; 4.71E−04 nM): 4324.037
- F.I. (AlamarBlue, cell viability) (TF-1 cells; 9.42E−05 nM): 4361.92

Substance: Ab-Ex4(RN): BLV1H12-Ex-4 fusion antibody treated with Factor Xa protease to release N-terminal of Ex-4
- RLU (luciferase reporter) (GLP-1 receptor (GLP-1R); 0.00248 nM): 24120
- RLU (luciferase reporter) (GLP-1 receptor (GLP-1R); 0.00496 nM): 26320
- RLU (luciferase reporter) (GLP-1 receptor (GLP-1R); 0.00992 nM): 28140
- RLU (luciferase reporter) (GLP-1 receptor (GLP-1R); 0.01984 nM): 33500
- RLU (luciferase reporter) (GLP-1 receptor (GLP-1R); 0.03967 nM): 34180
- RLU (luciferase reporter) (GLP-1 receptor (GLP-1R); 0.07935 nM): 48860
- RLU (luciferase reporter) (GLP-1 receptor (GLP-1R); 0.31738 nM): 80740
- RLU (luciferase reporter) (GLP-1 receptor (GLP-1R); 0.63477 nM): 117240
- RLU (luciferase reporter) (GLP-1 receptor (GLP-1R); 1.26953 nM): 128740
- RLU (luciferase reporter) (GLP-1 receptor (GLP-1R); 2.53906 nM): 153820
- RLU (luciferase reporter) (GLP-1 receptor (GLP-1R); 5.07813 nM): 163020
- RLU (luciferase reporter) (GLP-1 receptor (GLP-1R); 10.15625 nM): 169360
- RLU (luciferase reporter) (GLP-1 receptor (GLP-1R); 20.3125 nM): 161380
- RLU (luciferase reporter) (GLP-1 receptor (GLP-1R); 40.625 nM): 154920
- RLU (luciferase reporter) (GLP-1 receptor (GLP-1R); 81.25 nM): 163700
- RLU (luciferase reporter) (GLP-1 receptor (GLP-1R); 162.5 nM): 163860
- RLU (luciferase reporter) (GLP-1 receptor (GLP-1R); 325 nM): 164160
- RLU (luciferase reporter) (GLP-1 receptor (GLP-1R); 650 nM): 155700
- RLU (luciferase reporter) (GLP-1 receptor (GLP-1R); 1300 nM): 168740

Substance: Ab-VM24-L2: Vm24 in BLV1H12 CDR3H, first linker=GGGSGGGGS and second linker=GGGGSGGGS; DNA SEQ ID NO: 14
- F.I. (secreted TNF-α, ELISA) (Human T cells; 0.45725 nM): 3156.626
- F.I. (secreted TNF-α, ELISA) (Human T cells; 1.37174 nM): 3345.846
- F.I. (secreted TNF-α, ELISA) (Human T cells; 4.11523 nM): 3518.316
- F.I. (secreted TNF-α, ELISA) (Human T cells; 12.34568 nM): 3607.5755
- F.I. (secreted TNF-α, ELISA) (Human T cells; 37.03704 nM): 3508.0475
- F.I. (secreted TNF-α, ELISA) (Human T cells; 111.11111 nM): 3220.2475
- F.I. (secreted TNF-α, ELISA) (Human T cells; 333.33333 nM): 2465.838
- F.I. (secreted TNF-α, ELISA) (Human T cells; 1000 nM): 1306.0215

Substance: Ab-VM24 L1: Vm24 in BLV1H12 CDR3H, linker=GGGGS; DNA SEQ ID NO: 13
- F.I. (secreted TNF-α, ELISA) (Human T cells; 0.45725 nM): 3427.004
- F.I. (secreted TNF-α, ELISA) (Human T cells; 1.37174 nM): 3265.969
- F.I. (secreted TNF-α, ELISA) (Human T cells; 4.11523 nM): 3499.82
- F.I. (secreted TNF-α, ELISA) (Human T cells; 12.34568 nM): 3627.431
- F.I. (secreted TNF-α, ELISA) (Human T cells; 37.03704 nM): 3575.4815
- F.I. (secreted TNF-α, ELISA) (Human T cells; 111.11111 nM): 3085.439
- F.I. (secreted TNF-α, ELISA) (Human T cells; 333.33333 nM): 1853.645
- F.I. (secreted TNF-α, ELISA) (Human T cells; 1000 nM): 990.818

Substance: Ab-Ex4: Exendin-4 with Factor Xa cleavage site and GGGGS linkers grafted into BLV1H12 CDR3H; DNA SEQ ID NO: 8
- RLU (luciferase reporter) (GLP-1 receptor (GLP-1R); 1.26953 nM): 6120
- RLU (luciferase reporter) (GLP-1 receptor (GLP-1R); 2.53906 nM): 6360
- RLU (luciferase reporter) (GLP-1 receptor (GLP-1R); 5.07813 nM): 8500
- RLU (luciferase reporter) (GLP-1 receptor (GLP-1R); 10.15625 nM): 10420
- RLU (luciferase reporter) (GLP-1 receptor (GLP-1R); 20.3125 nM): 19340
- RLU (luciferase reporter) (GLP-1 receptor (GLP-1R); 40.625 nM): 27960
- RLU (luciferase reporter) (GLP-1 receptor (GLP-1R); 81.25 nM): 54800
- RLU (luciferase reporter) (GLP-1 receptor (GLP-1R); 162.5 nM): 90660
- RLU (luciferase reporter) (GLP-1 receptor (GLP-1R); 325 nM): 117900
- RLU (luciferase reporter) (GLP-1 receptor (GLP-1R); 650 nM): 134760
